Data on four molecules can be found in patent US20240209043A1 (ORAL SUBSIDIARY SUN YAT SEN UNIVERSITY HOSPITAL, published 2024).

Where no end group is shown, it is not given here.

For assay [1], the target named is T1, PD-1 on the surface of cells (Jurkat T cells stimulated with PMA and ionomycin; iCIKs) (human, UniProt Q15116 25-288).
T1 construct: whole, on cells; Endogenous PD-1 of human cells; also called PD-1 on the surface of Jurkat T cells; PD-1-expressing Jurkat T cells
Description: flow cytometry blocking assay: peptide mixed with recombinant human PD-L1, PD-L1 binding to PD-1-expressing stimulated Jurkat T cells read with APC streptavidin. The procedure: (§1) The Jurkat T cells were divided into two groups, an experimental group and a control group, wherein in the experimental group, 50 ng/ml of Phorbol 12-myristate 13-acetate (PAM) and 1 ug/ml of Ionomycin Calcium Salt (Ionomycin) were used to stimulate the cells, and in the control group, Jurkat T cells were unstimulated. The cells (5×10⁵) were collected in each tube, and washed once with FACS buffer (PBS with 2% BSA). […] FACS buffer was used for washing the cells three times, and 0.12 ug/ml of APC Streptavidin (405207, Biolegend) was added to each tube and the incubation was performed for 1 hour at 4° C., and then the cells were washed three times with FACS buffer again, and 500 μl of PBS was added to resuspend the cells, which were further transferred to flow tubes and analyzed by flow cytometry.
On the technique in general: In flow cytometry, cells or beads pass a laser one at a time.

The target in assay [2] is T2, Recombinant Human PD-1 protein (PD1-H5221, Acro Biosystems) (human, UniProt Q15116 25-167).
T2 construct: Bought reagent, amine-coupled to a CM5 chip for SPR
T2 sequence (Q15116 25-167 limits assumed): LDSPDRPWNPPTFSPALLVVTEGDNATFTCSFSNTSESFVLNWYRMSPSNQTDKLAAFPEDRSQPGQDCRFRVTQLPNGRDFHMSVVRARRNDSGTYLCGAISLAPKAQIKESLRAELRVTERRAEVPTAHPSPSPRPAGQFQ
Description: SPR (Biacore T100), recombinant human PD-1 coupled to a CM5 chip, peptide as analyte at 0.3125-20 µM. The method, then: (§2) The affinity of the peptides was tested with Biocore T100 through surface plasmon resonance (SPR) technique. […] Finally, the affinities (Kd-value) of the peptides were calculated by fitting curves in the sensor diagram in Biacore software.
(In general: In SPR one partner is held on a chip, and binding of the other changes the refractive index at the surface.)

For assay [3], the target named is T2, Recombinant Human PD-1 protein …. Description: SPR (Biacore T100), recombinant human PD-1 coupled to a CM5 chip, peptide as analyte at 0.03125-2 µM. The procedure: as §2
The target of assay [4] is T3, Recombinant Human PD-L1 protein (PD1-H82F3, Acro Biosystems) (human, UniProt Q9NZQ7 19-238).
T3 construct: Bought reagent
T3 sequence (Q9NZQ7 19-238 limits assumed): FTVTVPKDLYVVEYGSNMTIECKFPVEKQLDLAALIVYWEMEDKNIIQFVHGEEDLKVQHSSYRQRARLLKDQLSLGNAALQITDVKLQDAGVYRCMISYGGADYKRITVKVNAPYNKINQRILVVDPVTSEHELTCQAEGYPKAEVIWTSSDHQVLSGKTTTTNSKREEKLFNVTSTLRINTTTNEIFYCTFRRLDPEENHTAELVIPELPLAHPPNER
Description: SPR (Biacore T100), recombinant human PD-L1 coupled to a CM5 chip, peptide as analyte at 0.03125-2 µM. The procedure:
as §2

Assay [5] has as its target T1, PD-1 on the surface of cells (Jurkat T …). Description: flow cytometry blocking assay: peptide mixed with recombinant human PD-L1, PD-L1 binding to PD-1-expressing stimulated Jurkat T cells read with APC streptavidin; nABP486 also binds PD-L1 itself (Figure 2D). The method, then:
as §1

The target in assay [6] is T3, Recombinant Human PD-L1 protein …. Description: SPR (Biacore T100), recombinant human PD-L1 coupled to CM5 chip, peptide as analyte. The method, then:
as §2

Assay [7] deals with T2, Recombinant Human PD-1 protein …. Description: SPR (Biacore T100), recombinant human PD-1 coupled to CM5 chip, peptide as analyte. The method, then:
as §2

T1 sequence (Q15116 25-288): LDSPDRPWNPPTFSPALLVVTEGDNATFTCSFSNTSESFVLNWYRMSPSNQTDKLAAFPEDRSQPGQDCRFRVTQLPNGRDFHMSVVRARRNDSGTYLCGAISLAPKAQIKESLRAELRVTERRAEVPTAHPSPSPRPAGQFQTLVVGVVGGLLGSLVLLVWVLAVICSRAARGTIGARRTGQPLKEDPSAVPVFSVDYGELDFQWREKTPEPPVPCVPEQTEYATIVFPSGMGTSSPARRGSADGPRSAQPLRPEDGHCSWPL

The IC50 is the concentration needed to halve the response being measured. In general, Kd refers to the equilibrium constant for the complex coming apart. With SRLKEIANSPTQFWRMVARNTLGGAKQSLNIEHARL (not fully specified, also called PD-1-nABP284) [nABP284], the IC50 in assay [1] turned out to be 9610 nM. The Kd in assay [2] is 11800 nM.

B1: nABP486 (peptide)
chain 1: SHHHRLKLKEIANSPTQFWRMVARNTLGNGAKQSLNIEHA
chain 2: SHHHRL
modifications: also: lactam at chain A 7 at chain B 6 to a chain's C-terminus
notes: Branched synthetic peptide (Fmoc solid-phase synthesis)
As usually defined, the koff is a measure of how fast the partners let go of each other. What is called kon is the second-order rate constant of association. Turning to B1, the koff came to 0.00589 s⁻¹ in assay [3] and 0.00204 s⁻¹ in assay [4]. The kon in assay [3] was found to be 496000 M⁻¹ s⁻¹; in assay [4], 38900 M⁻¹ s⁻¹. Moreover, the results for the dissociation constant Kd in assay [4], in assay [6] and in assay [7] were 52.4 nM, 54.2 nM and 11.9 nM, respectively. The IC50 in assay [5] amounted to 2580 nM.

B2: nABP786 (peptide)
chain 1: SHHHRLKLKEIANCSPTQFKC
chain 2: SHHHRL
modifications: cysteine pairing not given here; also: lactam at chain A 7 at chain B 6 to a chain's C-terminus
Regarding B2, the figures for the dissociation rate constant (koff) in assay [3] and in assay [4] were 0.000453 s⁻¹ and 0.000486 s⁻¹, respectively. Also, the kon was found to be 77600 M⁻¹ s⁻¹ in assay [3] and 29000 M⁻¹ s⁻¹ in assay [4]. Also, the equilibrium dissociation constant (Kd) in assay [6] was 16.7 nM; in assay [7], 5.84 nM.

B3: nABP386 (peptide)
chain 1: SRLKEIANSPTQFWRMVARNTLGNHAKQSLNIEHA
chain 2: SHHHRL
modifications: also: bond at chain A 27 at chain B 6 to a chain's C-terminus
notes: as for B1
For the molecule B3, in assay [3], the dissociation rate constant (koff) was 0.00293 s⁻¹ and the kon was found to be 39000 M⁻¹ s⁻¹. Moreover, the IC50 in assay [1] came to 3420 nM. Also, the Kd in assay [7] amounted to 75.1 nM.
